Experimental data as given in patent US10577424 (BEIJING MABWORKS BIOTECH, dated 2020).

Columns and labels:
[1] = target: T1, monkey VISTA (ECD)-his (Sino Biological, Cat #: 90801-K08H) (cynomolgus monkey); assay: direct ELISA, coated cynoVISTA(ECD)-his
T1 construct: extracellular domain; Bought protein; also called cynoVISTA(ECD)-his; cynomolgus VISTA (ECD)-his
Procedure: (§1) Species-cross-reactivity of the 28 VISTA mAbs to monkey or mouse VISTA was further assessed by direct ELISA. Briefly, 500 ng/ml monkey VISTA (ECD)-his (Sino Biological, CN, Cat #: 90801-K08H) or mouse VISTA-his (Sino Biological, CN, Cat #:511550-M08H) was coated on 96-well ELISA plates followed by incubation with 100 μl of serially diluted anti-VISTA antibodies (starting from 40000 ng/ml). Goat anti-mouse IgG conjugated with HRP (Sigma, US, Cat #:A9309-1 ml) was used then. Anti-VISTA antibody JNJ-VSTB174 (referred to as JNJ) (prepared using the amino acid sequences disclosed in WO 2015/097536 A2 with human IgG1/kappa constant regions) was used as the reference.

[2] = target: T2, mouse VISTA-his (Sino Biological, Cat #:511550-M08H) (mouse, UniProt Q9D659 33-191); assay: direct ELISA, coated mouse VISTA-his
T2 construct: extracellular domain; Bought protein; also called muVISTA-his; mouse VISTA (ECD)-his; not shown: his tag
T2 sequence (looked up): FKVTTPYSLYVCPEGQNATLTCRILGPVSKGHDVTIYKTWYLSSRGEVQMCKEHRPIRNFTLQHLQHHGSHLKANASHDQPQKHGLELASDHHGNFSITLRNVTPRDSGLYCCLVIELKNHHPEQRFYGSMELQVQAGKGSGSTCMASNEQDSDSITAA
Procedure: as §1

[3] = target: T3, monkey VISTA expressed on HEK293A cells (monkey (cynomolgus)); assay: FACS on HEK-293A/cynoVISTA cells
T3 construct: also called HEK293A/cynoVISTA; HEK293A/monkey VISTA
T3 chain: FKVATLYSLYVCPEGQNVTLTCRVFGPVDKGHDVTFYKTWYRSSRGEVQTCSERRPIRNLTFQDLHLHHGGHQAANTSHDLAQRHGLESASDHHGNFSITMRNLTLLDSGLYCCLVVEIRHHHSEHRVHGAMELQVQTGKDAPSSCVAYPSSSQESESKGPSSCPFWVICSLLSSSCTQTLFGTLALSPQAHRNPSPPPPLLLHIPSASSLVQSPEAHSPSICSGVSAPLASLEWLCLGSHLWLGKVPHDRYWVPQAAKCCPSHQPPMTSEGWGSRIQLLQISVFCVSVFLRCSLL
Procedure: (§2) Example 5 Mouse Anti-VISTA Monoclonal Antibodies Bound to Human and Monkey VISTA Expressed on HEK293A Cells To further determine whether anti-VISTA antibodies bound to human, monkey or mouse VISTA expressed on HEK293A cells, a cell-based binding assay by FACS was performed using the HEK293A cells stably overexpressing human, monkey or mouse VISTA as generated in Example 1, respectively. Briefly, 10^5 HEK293A cells were seeded into each well of the 96-well plates and serially diluted anti-VISTA antibodies were added to the plates. After incubated at 4° C. for 1 hour, plates were washed 3 times with PBST. Then, an APC coupled Goat Anti-Mouse IgG (BioLegend, US, Cat #:405308) diluted 500× was added to the plates. After incubation at 4° C. for 1 hour, the plates were washed with PBS for 3 times and then cell fluorescence was monitored using a FACS machine (BD).

[4] = target: T4, mouse VISTA expressed on HEK293A cells (mouse, UniProt Q9D659 33-308); assay: FACS on HEK293A/mouse VISTA cells
T4 construct: also called HEK293A/mouseVISTA; HEK293A/mouse VISTA
T4 sequence: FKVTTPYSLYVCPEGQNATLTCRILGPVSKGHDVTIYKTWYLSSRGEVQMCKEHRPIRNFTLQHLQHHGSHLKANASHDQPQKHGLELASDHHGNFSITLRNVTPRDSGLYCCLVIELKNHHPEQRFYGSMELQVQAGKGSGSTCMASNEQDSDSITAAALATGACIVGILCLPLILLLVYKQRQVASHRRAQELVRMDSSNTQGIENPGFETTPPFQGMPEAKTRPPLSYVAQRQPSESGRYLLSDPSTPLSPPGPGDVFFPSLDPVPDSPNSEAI
Procedure: as §2

[5] = target: T5, human VISTA expressed on HEK293A cells (human, UniProt Q9H7M9 33-311); assay: FACS blocking assay on HEK293A/human VISTA cells; competitor 200 µg/ml VSIG3-hFc
T5 construct: also called HEK293A/humanVISTA; HEK293A/human VISTA
T5 sequence: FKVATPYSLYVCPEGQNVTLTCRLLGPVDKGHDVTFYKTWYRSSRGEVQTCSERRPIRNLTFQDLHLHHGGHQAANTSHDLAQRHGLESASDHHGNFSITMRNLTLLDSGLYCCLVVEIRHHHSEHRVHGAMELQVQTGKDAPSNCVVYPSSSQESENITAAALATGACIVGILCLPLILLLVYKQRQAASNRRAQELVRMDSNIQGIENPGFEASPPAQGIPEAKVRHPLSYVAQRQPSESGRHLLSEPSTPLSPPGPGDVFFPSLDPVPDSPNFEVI
Procedure: A cell-based blocking assay by FACS was performed using the HEK293A cells stably overexpressing human VISTA as generated in Example 1. Briefly, 10^5 HEK293A/human VISTA cells were seeded into each well of the 96-well plates and serially diluted anti-VISTA antibodies were added to the plates. After incubated at 4° C. for 1 hour, plates were washed 3 times with PBST. Then 200 μg/ml VSIG3-hFc fusion proteins were added into the plate. After incubation at 4° C. for 1 hour, the plates were washed with PBS for 3 times and then an PE coupled Goat Anti-human IgG (Thermofisher, USA, Cat # PAI-86078) diluted 500× was added to the plates. After incubation at 4° C. for 1 hour, the plates were washed with PBS for 3 times and then cell fluorescence was monitored using a FACS machine (BD).

[6] = target: T6, human VISTA (ECD)-his (Sino Biological, Cat #:13482-H08H) (human, UniProt Q9H7M9 33-194); assay: direct ELISA, coated hVISTA(ECD)-his
T6 construct: extracellular domain; Bought protein; also called hVISTA(ECD)-his; recombinant human VISTA(ECD)-his; not shown: his tag
T6 sequence (looked up): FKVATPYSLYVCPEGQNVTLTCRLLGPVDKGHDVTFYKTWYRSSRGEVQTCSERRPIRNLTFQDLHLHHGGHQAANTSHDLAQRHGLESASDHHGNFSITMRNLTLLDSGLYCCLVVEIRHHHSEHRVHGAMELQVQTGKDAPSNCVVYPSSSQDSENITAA
Procedure: ELISA plates were coated with 500 ng/ml human VISTA (ECD)-his (Sino Biological, CN, Cat #:13482-H08H) at 4° C. overnight. The wells were blocked with 200 μl of blocking buffer (PBS containing 1% BSA, 1% goat serum, and 0.05% Tween 20) for 2 hours at room temperature, and then 100 μl of serially diluted anti-VISTA antibodies (starting from 40000 ng/ml) were added to each well and incubated for 1 hour at RT. Plates were washed for 3 times with PBST (PBS+0.05% Tween 20), added with Goat-anti-mouse IgG-HRP (Simga, US, Cat #:A9309-1 ml) diluted 5000×, and incubated for 1 hour at RT. Plates were developed with freshly prepared Ultra-TMB (BD, US, Cat #:555214) for 5 minutes at RT. Absorbance was read on a SpectraMax® i3× (Molecular Devies, US) at 450 nm.

[7] = target: T5, human VISTA expressed on HEK293A cells; assay: FACS on HEK-293A/hVISTA cells
Procedure: as §2

EC50 [1]: 0.45 nM
EC50 [3]: 1.2 nM
binding result [4]: no binding
EC50 [5]: 19 nM
EC50 [6]: 0.32 nM
EC50 [7]: 0.6 nM
B1: mouse 161E5 anti-VISTA antibody (antibody, V domains shown)
VH: QVQLKQSGAELVRPGASVKLSCKASGYSFTDYYINWVKQRPGQGLEWIARIFPGSGNAYYNEKFKDKATLTVEKSSSAAYMQLSSLTSEDSAVYFCARDDSFYGYWYFDVWGTGTTVTVSS
VL: NIMMTQSPSSLAVSAGEKVTMSCKSSQSVLYSSNQKNYLAWYQQKPGQSPKLLIYWASTRESGVPDRFTGSGSGTDFTLTISSVQAEDLAVYYCHQYLSSYTFGGGTKLEIK
notes: also called mouse anti-VISTA antibodies from clone 161E5; murine antibody 161E5
binding result [2]: no binding (tested: starting from 40000 ng/ml)
